Measured values published in patent US20240092922A1 (EUCURE BEIJING BIOPHARMA, published 2024).
Numbering of substitutions follows the chain as printed.

Assays:
[1] = biological target: T1, human 4-1BB (h4-1BB) on transiently transfected CHO cells (human, UniProt Q07011 24-255); assay: flow cytometry, CHO cells transfected with human 4-1BB, antibody at 10 µg/ml
T1 construct: also called TNFRSF9; CD137
Experimental: (§1) 25 μl CHO cells transiently transfected with human 4-1BB were added to each well in a plate. The purified antibodies were titrated to final concentrations of 10, 1, 0.1, 0.01, 0.001 μg/ml. The titrated antibodies were added to each well at 4° C. and incubated for 30 minutes.
(§2) After being washed with phosphate-buffered saline (PBS) (1200 rpm, 5 minutes) twice, 50 μl of FITC labeled anti-mouse IgG Fc antibody (anti-mIgG Fc-FITC) at 1:100 dilution was added into each well, and incubated for 30 minutes at 4° C., followed by PBS wash (1200 rpm, 5 minutes). The signal for FITC was detected by flow cytometry.

[2] = biological target: T1, human 4-1BB (h4-1BB) on transiently …; assay: flow cytometry, CHO cells transfected with human 4-1BB, antibody at 0.01 µg/ml
Experimental: as §1, §2

[3] = biological target: T2, chimeric (mouse and human) 4-1BB (c4-1BB) on transfected CHO cells (chimeric (mouse and human)); assay: flow cytometry on transfected CHO cells;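 further: antibodies tested at 1 µg/ml on CHO cells for 30 min at 4 °C, binding detected with FITC- or PE-labeled anti-mouse IgG Fc secondary by flow cytometry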
T2 construct: also called chi4-1BB; CHO-c4-1BB
Experimental: (§3) 25 μl CHO cells were added to each well. 25 μl purified anti-h4-1BB antibodies (1 μg/ml) were added to each well and were incubated at 4° C. for 30 minutes.
(§4) After being washed with PBS (1200 rmp, 5 min) twice, 50 μl of FITC labeled anti-mouse IgG Fc antibody (anti-mIgG Fc-FITC) was added into each well at 1:100 dilution, followed by incubating at 4° C. for 30 minutes, and then PBS wash (1200 rmp, 5 min). In some cases, PE labeled anti-mouse IgG Fc antibody (anti-mIgG Fc-PE) was used to label the antibody instead, and was added into each tested well at 1:500 dilution. The signals for FITC and PE were determined by flow cytometry.

[4] = biological target: T3, monkey (Rhesus macaque) 4-1BB (r4-1BB) on transfected CHO cells (monkey (Rhesus macaque), UniProt Q07011 24-255 (human entry)); assay: flow cytometry on transfected CHO cells;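 further: antibodies tested at 1 µg/ml on CHO cells for 30 min at 4 °C, binding detected with FITC- or PE-labeled anti-mouse IgG Fc secondary by flow cytometry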
T3 construct: also called rm4-1BB; CHO-r4-1BB
T3 chain: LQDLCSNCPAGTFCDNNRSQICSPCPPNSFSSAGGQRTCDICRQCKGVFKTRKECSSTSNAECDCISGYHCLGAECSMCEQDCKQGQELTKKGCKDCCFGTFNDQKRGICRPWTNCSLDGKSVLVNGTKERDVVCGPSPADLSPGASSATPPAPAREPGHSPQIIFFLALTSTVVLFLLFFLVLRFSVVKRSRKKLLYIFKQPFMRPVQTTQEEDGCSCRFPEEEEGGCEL
Experimental: as §3, §4

[5] = biological target: T4, mouse 4-1BB (m4-1BB) on transfected CHO cells (mouse, UniProt P20334 24-256); assay: flow cytometry on CHO cells transfected with mouse 4-1BB
T4 construct: also called CHO-m4-1BB
Experimental: as §3, §4

[6] = biological target: T1, human 4-1BB (h4-1BB) on transiently …; assay: flow cytometry, CHO cells transfected with human 4-1BB, antibody at 1 µg/ml
Experimental: as §1, §2

[7] = biological target: T1, human 4-1BB (h4-1BB) on transiently …; assay: flow cytometry, CHO cells transfected with human 4-1BB, antibody at 0.1 µg/ml
Experimental: as §1, §2

[8] = biological target: T1, human 4-1BB (h4-1BB) on transiently …; assay: flow cytometry, CHO cells transfected with human 4-1BB, antibody at 0.001 µg/ml
Experimental: as §1, §2

[9] = biological target: T5, Histidine-tagged human 4-1BB protein (h4-1BB-His) (human, UniProt Q07011 24-186); assay: SPR (Biacore T200), antibody on Protein A chip, h4-1BB-His injected;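 further: dissociation phase followed for 300 s, Kd derived as koff divided by kon from the kinetic fit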
T5 construct: not shown: histidine tag

B1: 29-6A5 (antibody, V domains shown)
VH: QVQLQQPGAELVRPGASVKLSCKASGYTFSSYWINWVKQRPGQGLEWIGNIYPSDSYTNYNQKFKDKATLTVDKSSSTAYMQLSSPTSDDSAVYYCTRTWEFYYDSVFDYWGQGTTLTVSS
VL: DIKMTQSPSSMYASLGERVTITCKASQDINSYLSWFQQKPGKSPKTLIYRANRLVDGVPSRFSGSGSGQDYSLTISSLEYEDMGIYYCLQYDELPPTFGGGTKLEIK
notes: mouse antibody purified from ascites
For B1, which “percentage of cells with FITC signal” value [1] is on record?
Its value is 80.5%.

And the “percentage of cells with FITC signal” value [2]?
The value was 47.4%.

Does B1 bind [3]?
Result: binds

Does B1 bind [4]?
Result: binds

Does B1 bind [5]?
Result: no binding (tested: 1 µg/ml)

What about the “percentage of cells with FITC signal” value [6] of the same binder?
Its value is 73.4%.

What about the “percentage of cells with FITC signal” value [7] of the same binder?
Its value is 70.8%.

B2: 45-4B9 (antibody, V domains shown)
VH: EVQLQQSGPELVKPGASVKMSCKASGYTFTTYVMYWVKQRPGQGLEWIGYINPYNDDIRYNEKFKGKATLTSDRSSSTAYMELSSLTSEDSAVYLCARQGGDYWGQGTILTVSS
VL: DVQITQSPSYLAASPGETITVNCRASKNINKYLAWYQEKPGKTNKLLIYSGSTLQSGIPSRFSGSGSGTDFTLTISSLEPEDFAVYHCQQYNEYPLTFGAGTKLEMK
notes: as for B1
B2 was tested. Which “percentage of cells with FITC signal” value [1] did it give?
Its value is 56.2%.

What about the “percentage of cells with FITC signal” value [2] of the same binder?
Its value is 1.2%.

Does B2 bind [3]?
Result: binds

Does B2 bind [4]?
Result: binds

Does B2 bind [5]?
Result: no binding (tested: 1 µg/ml)

And the “percentage of cells with FITC signal” value [8]?
The value was 1.86%.

What about the “percentage of cells with FITC signal” value [6] of the same binder?
The value was 49.3%.

What about the “percentage of cells with FITC signal” value [7] of the same binder?
Its value is 10.4%.

B3: 45-8F1 (antibody, V domains shown)
VH: EVQLQQSGTVLARPGASVKMSCKASGYSFTSYWMHWVKQRPGQGLEWIGVIYPGNSDTSYNQKFKGKAKLTAVTSASTAYMDLSSLTNEDSAVYYCTRGITTAPDYWGQGTTLTVSS
VL: NIVMTQSPKSMSMSVGERVTLSCKASENVGIHVSWYQQKPEQSPKLLIYGASSGYNGVPDRFTGSGSATDFTLTISSVQPEDLADYHCGQTYSYPFTFGSGTKLEIK
notes: as for B1
How did the “percentage of cells with FITC signal” value [1] turn out when B3 was run?
The value was 58.6%.

What about the “percentage of cells with FITC signal” value [2] of the same binder?
The value was 6.21%.

Does B3 bind [3]?
Result: binds

Does B3 bind [4]?
Result: binds

Does B3 bind [5]?
Result: no binding (tested: 1 µg/ml)

And the “percentage of cells with FITC signal” value [8]?
Its value is 1.38%.

What about the “percentage of cells with FITC signal” value [6] of the same binder?
The value was 56.1%.

And the “percentage of cells with FITC signal” value [7]?
The value was 43.9%.

B4: 56-2A6 (antibody, V domains shown)
VH: QIQLVQSGPELKKPGETVKISCKASGYTFTNYGMNWVKQAPGKGFKWMGWINTYTGEPTYADDFKGRFAFSLEISASTAYLQINNLKNEDTATYFCARRDYLGAMDYWGQGTSVTVSS
VL: ENVLTQSPAIMSASPGEKVTMTCRASSSVSSSYLHWYQQKSGASPKLWIYSTSNLASGVPARFSGSGSGTSYSLTISSVEAEDAATYYCQQYSAYLYTFGGGTKLEIK
notes: as for B1
Which results are given for B4?
percentage of cells with FITC signal [1]: 46.6%; percentage of cells with FITC signal [2]: 0.89%; binding result [3]: binds; binding result [5]: no binding (tested: 1 µg/ml); percentage of cells with FITC signal [8]: 0.25%; percentage of cells with FITC signal [6]: 40.9%; percentage of cells with FITC signal [7]: 17.1%

B5: 5F9-H2K1-IgG4 (antibody, V domains shown)
VH: QVQLKESGPGLVKPSETLSLTCTVSGFSLTTYDISWVRQPPGKGLEWLGVIWTGGGTNYNSSFMSRVTISKDTSKNQVSLKLSSVTAADTAIYYCERVDYWGQGTTVTVSS
VL: DVVMTQSPLSLPVTLGQPASISCRSSQSLVHSNGNTYLHWFQQRPGQSPRLLIYKVSNRFSGVPDRFSGSGSGTAFTFKISRVEAEDVGVYYCSQNTHVPWTFGGGTKVEIK
notes: humanized
What does the source list for B5?
Kd [9]: 11.2 nM; koff [9]: 0.00225 s⁻¹; kon [9]: 202000 M⁻¹ s⁻¹

B6: 5F9-H2K3-IgG4 (antibody, V domains shown)
VH: B5 VH
VL: B5 VL with F41Y, R50K, V109L
notes: humanized
B6 was tested. Which Kd [9] did it give?
The Kd was 9.81 nM.

What about the koff [9] of the same binder?
Its koff is 0.00207 s⁻¹.

What about the kon [9] of the same binder?
Its kon is 212000 M⁻¹ s⁻¹.

B7: 5F9-H2K4-IgG4 (antibody, V domains shown)
VH: B5 VH
VL: B5 VL with Q17D, F41Y, Q42L, R50K, V109L
notes: humanized
For B7, which Kd [9] is on record?
Its Kd is 12.4 nM.

And the koff [9]?
Its koff is 0.00269 s⁻¹.

What about the kon [9] of the same binder?
The kon was 216000 M⁻¹ s⁻¹.

B8: 5F9-H3K1-IgG4 (antibody, V domains shown)
VH: B5 VH with L20I, T73N, V107L
VL: B5 VL
notes: humanized
For B8, which Kd [9] is on record?
The Kd was 12.2 nM.

And the koff [9]?
The koff was 0.00242 s⁻¹.

And the kon [9]?
Its kon is 198000 M⁻¹ s⁻¹.

B9: 5F9-H3K2-IgG4 (antibody, V domains shown)
VH: B5 VH with L20I, T73N, V107L
VL: B5 VL with R50K
notes: humanized
What does the source list for B9?
Kd [9]: 13.7 nM; koff [9]: 0.00258 s⁻¹; kon [9]: 188000 M⁻¹ s⁻¹

B10: 5F9-H3K3-IgG4 (antibody, V domains shown)
VH: B5 VH with L20I, T73N, V107L
VL: B5 VL with F41Y, R50K, V109L
notes: humanized
With B10 as the binder, how does the Kd [9] read?
Its Kd is 10.5 nM.

And the koff [9]?
The koff was 0.0022 s⁻¹.

What about the kon [9] of the same binder?
Its kon is 210000 M⁻¹ s⁻¹.

B11: 5F9-H3K4-IgG4 (antibody, V domains shown)
VH: B5 VH with L20I, T73N, V107L
VL: B5 VL with Q17D, F41Y, Q42L, R50K, V109L
notes: humanized
How did the Kd [9] turn out when B11 was run?
The Kd was 11.4 nM.

And the koff [9]?
The koff was 0.0027 s⁻¹.

What about the kon [9] of the same binder?
Its kon is 236000 M⁻¹ s⁻¹.

B12: 6A5-H2K2-IgG2 (antibody, V domains shown)
VH: QVQLVQSGAEVKKPGSSVKLSCKASGYTFSSYWINWVRQAPGQGLEWIGNIYPSDSYTNYNQKFKDRATLTVDKSTSTAYMELSSLRSEDTAVYYCTRTWEFYYDSVFDYWGQGTLVTVSS
VL: DIQMTQSPSSLSASLGERVTITCKASQDINSYLSWYQQKPGKAPKTLIYRANRLVDGVPSRFSGSGSGQDFTLTISSLQPEDIATYYCLQYDELPPTFGGGTKVEIK
notes: humanized
For B12, which Kd [9] is on record?
The Kd was 0.28 nM.

What about the koff [9] of the same binder?
Its koff is 0.000652 s⁻¹.

And the kon [9]?
The kon was 2.33e+06 M⁻¹ s⁻¹.

B13: 6A5-H1K1-IgG2 (antibody, V domains shown)
VH: B12 VH with I48M, A68V
VL: B12 VL with T46L
notes: humanized
With B13 as the binder, how does the Kd [9] read?
The Kd was 1.17 nM.

B14: 6A5-H1K2-IgG2 (antibody, V domains shown)
VH: B12 VH with I48M, A68V
VL: B12 VL
notes: humanized
With B14 as the binder, how does the Kd [9] read?
Its Kd is 0.278 nM.

What about the koff [9] of the same binder?
Its koff is 0.000662 s⁻¹.

What about the kon [9] of the same binder?
Its kon is 2.38e+06 M⁻¹ s⁻¹.

B15: 6A5-H1K3-IgG2 (antibody, V domains shown)
VH: B12 VH with I48M, A68V
VL: B12 VL with Y36F
notes: humanized
What does the source list for B15?
Kd [9]: 0.214 nM; koff [9]: 0.000475 s⁻¹; kon [9]: 2.22e+06 M⁻¹ s⁻¹

B16: 6A5-H1K4-IgG2 (antibody, V domains shown)
VH: B12 VH with I48M, A68V
VL: B12 VL with Y36F, F71Y, V104L
notes: humanized
With B16 as the binder, how does the Kd [9] read?
The Kd was 0.321 nM.

And the koff [9]?
Its koff is 0.000693 s⁻¹.

And the kon [9]?
The kon was 2.16e+06 M⁻¹ s⁻¹.

B17: 6A5-H2K1-IgG2 (antibody, V domains shown)
VH: B12 VH
VL: B12 VL with T46L
notes: humanized
For B17, which Kd [9] is on record?
The Kd was 2.32 nM.

And the koff [9]?
Its koff is 0.00155 s⁻¹.

What about the kon [9] of the same binder?
Its kon is 668000 M⁻¹ s⁻¹.

B18: 6A5-H2K3-IgG2 (antibody, V domains shown)
VH: B12 VH
VL: B12 VL with Y36F
notes: humanized
Which Kd [9] does the source give for B18 here?
Its Kd is 0.221 nM.

What about the koff [9] of the same binder?
The koff was 0.000504 s⁻¹.

And the kon [9]?
The kon was 2.28e+06 M⁻¹ s⁻¹.

B19: 6A5-H2K4-IgG2 (antibody, V domains shown)
VH: B12 VH
VL: B12 VL with Y36F, F71Y, V104L
notes: humanized
For B19, which Kd [9] is on record?
Its Kd is 0.26 nM.

What about the koff [9] of the same binder?
Its koff is 0.000581 s⁻¹.

And the kon [9]?
Its kon is 2.24e+06 M⁻¹ s⁻¹.

B20: 6A5-H3K1-IgG2 (antibody, V domains shown)
VH: B12 VH with R38K, R67K, L116T, V117L
VL: B12 VL with T46L
notes: humanized
How did the Kd [9] turn out when B20 was run?
Its Kd is 2.78 nM.

What about the koff [9] of the same binder?
Its koff is 0.00181 s⁻¹.

What about the kon [9] of the same binder?
The kon was 650000 M⁻¹ s⁻¹.

B21: 6A5-H3K2-IgG2 (antibody, V domains shown)
VH: B12 VH with R38K, R67K, L116T, V117L
VL: B12 VL
notes: humanized
Which results are given for B21?
Kd [9]: 0.402 nM; koff [9]: 0.000825 s⁻¹; kon [9]: 2.05e+06 M⁻¹ s⁻¹

B22: 6A5-H3K3-IgG2 (antibody, V domains shown)
VH: B12 VH with R38K, R67K, L116T, V117L
VL: B12 VL with Y36F
notes: humanized
How did the Kd [9] turn out when B22 was run?
Its Kd is 0.252 nM.

What about the koff [9] of the same binder?
The koff was 0.000538 s⁻¹.

And the kon [9]?
The kon was 2.14e+06 M⁻¹ s⁻¹.

B23: 6A5-H3K4-IgG2 (antibody, V domains shown)
VH: B12 VH with R38K, R67K, L116T, V117L
VL: B12 VL with Y36F, F71Y, V104L
notes: humanized
What does the source list for B23?
Kd [9]: 0.4 nM; koff [9]: 0.000747 s⁻¹; kon [9]: 1.87e+06 M⁻¹ s⁻¹
